Data from article PMC3068300 (Proteins, 2010).

Biological target: the molecule itself
Experiment: SEC

B1: Mycobacterium tuberculosis Rv2704 (natural protein)
chain: ASRTMVSSGSEFESAVGYSRAVRIGPLVVVAGTTGSGDDIAAQTRDALRRIEIALGQAGATLADVVRTRIYVTDISRWREVGEVHAQAFGKIRPVTSMVEVTALIAPGLLVEIEADAYVGSAVADRNSGAGPKDPSPAGG
- stoichiometry N: 3
